Reference: patent publication CN115873113A (SHANGHAI INST MATERIA MEDICA CAS, dated 2023)

B1: 纳米抗体NB32 (VHH)
VHH: QVQLQESGGGSVQAGGSLTLSCAASEYKHRYSTYSMGWFRQAPGKEREGVAAIYSDGGTRYADSVKGRFTISKDNAKSTLYLLMNSLKPEDTAMYYCAASQTFRGWYPYEYNYWGQGTQVTVSS
notes: Camel VHH expressed in E. coli and purified on a nickel column; It was detected through an HA tag; also called 抗体株NB32
B2: 纳米抗体NB88 (VHH)
VHH: QVQLQESGGGSVQAGESLRLSCAASRYGYSRNWMGWFRQPPGKEREGVAVIYTGGSKTAYADAVKGRFIISLDNANNTVYLQMNSLKPEDTAMYYCAAGLVAYGRRWSPEAYKYWGQGTQVTVSS
notes: Camel VHH expressed in E. coli and purified on a nickel column; It was detected through an HA tag; also called 抗体株NB88
B3: 纳米抗体2D11 (VHH)
VHH: QVQLQESGGGSVQAGGSLRLSCAASGFPISTYDMGWFRQAPGKEREGVVGITDSFSIKYEDSVKGRFTISRDNAKNALYLQMNSLKPEDTGMYYCAAGDARWSLLLRAEQYNYWGQGTQVTVSS
notes: Camel VHH expressed in E. coli and purified on a nickel column; It was detected through an HA tag; also called 抗体株2D11
B4: 纳米抗体2D4 (VHH)
VHH: LQESGGGSVQIGGSLRLSCAASGYTYMRYSSFCMGWFRQAPGKEREGVAAIDSGRRTTHADSVKGRFTISRDNAKNTLYLQMNSLKPEDTAMYYCAARDVGYCGGYWARRDFAYWGQGTQVTVSS
notes: Camel VHH expressed in E. coli and purified on a nickel column; It was detected through an HA tag; also called 抗体株2D4
B5: 纳米抗体1C12 (VHH)
VHH: QVQLQESGGGSVQAGGSLRLSCTASRYTYNSPLYMAWFRQAPGKEREGVAHIDSDGSITYTDSVKGRFTISRDNAKTTLYLQMNNLNPEDTAMYYCAADPLHRWSHRLEAIGYRYWGQGTQVTVSS
notes: Camel VHH expressed in E. coli and purified on a nickel column; also called 抗体株1C12

Columns and labels:
[1] = molecular target: T1, Biotin-CaSR蛋白 (人体细胞外钙敏感受体, Human extracellular calcium-sensing receptor) (human, UniProt P41180 20-870, limits assumed, biotinylated (Biotin-CaSR); site not stated); assay: BLI (Octet-Red96), Biotin-CaSR on streptavidin biosensor, nanobody in solution
T1 construct: Purified, detergent-solubilised CaSR; It was biotinylated and captured on NeutrAvidin plates for ELISA or on streptavidin biosensors for Octet
T1 sequence (looked up): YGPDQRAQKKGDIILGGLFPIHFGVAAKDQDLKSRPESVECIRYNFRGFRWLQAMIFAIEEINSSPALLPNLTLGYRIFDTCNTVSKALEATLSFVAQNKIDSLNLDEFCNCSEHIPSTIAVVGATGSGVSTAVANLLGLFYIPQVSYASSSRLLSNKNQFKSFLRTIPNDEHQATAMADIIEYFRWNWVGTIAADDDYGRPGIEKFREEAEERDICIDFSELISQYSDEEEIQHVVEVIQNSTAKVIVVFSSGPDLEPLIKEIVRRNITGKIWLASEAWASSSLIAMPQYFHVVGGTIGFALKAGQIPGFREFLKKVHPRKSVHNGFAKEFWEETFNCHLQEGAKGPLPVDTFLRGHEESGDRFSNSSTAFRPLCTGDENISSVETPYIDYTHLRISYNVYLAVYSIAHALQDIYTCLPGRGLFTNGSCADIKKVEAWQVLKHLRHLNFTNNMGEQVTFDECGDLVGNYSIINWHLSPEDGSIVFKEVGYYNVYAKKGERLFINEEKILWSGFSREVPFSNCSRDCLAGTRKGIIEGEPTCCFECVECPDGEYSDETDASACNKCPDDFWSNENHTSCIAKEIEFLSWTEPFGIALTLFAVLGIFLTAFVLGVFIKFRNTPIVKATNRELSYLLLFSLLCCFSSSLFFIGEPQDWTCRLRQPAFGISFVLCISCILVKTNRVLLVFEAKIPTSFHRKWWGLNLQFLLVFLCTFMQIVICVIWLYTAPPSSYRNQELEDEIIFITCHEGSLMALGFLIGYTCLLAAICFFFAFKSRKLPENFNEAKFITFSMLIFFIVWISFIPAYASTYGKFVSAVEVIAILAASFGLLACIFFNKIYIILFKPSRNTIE

[2] = molecular target: T1, Biotin-CaSR蛋白 (人体细胞外钙敏感受体, Human …); assay: ELISA, Biotin-CaSR on NeutrAvidin plate, nanobody titrated 1e-11 to 1e-6 mol/l, anti-HA detection
[3] = molecular target: T2, CaSR (细胞内钙流实验中的受体) (human, UniProt P41180 20-1078); assay: cell-based or functional assay
T2 sequence (looked up): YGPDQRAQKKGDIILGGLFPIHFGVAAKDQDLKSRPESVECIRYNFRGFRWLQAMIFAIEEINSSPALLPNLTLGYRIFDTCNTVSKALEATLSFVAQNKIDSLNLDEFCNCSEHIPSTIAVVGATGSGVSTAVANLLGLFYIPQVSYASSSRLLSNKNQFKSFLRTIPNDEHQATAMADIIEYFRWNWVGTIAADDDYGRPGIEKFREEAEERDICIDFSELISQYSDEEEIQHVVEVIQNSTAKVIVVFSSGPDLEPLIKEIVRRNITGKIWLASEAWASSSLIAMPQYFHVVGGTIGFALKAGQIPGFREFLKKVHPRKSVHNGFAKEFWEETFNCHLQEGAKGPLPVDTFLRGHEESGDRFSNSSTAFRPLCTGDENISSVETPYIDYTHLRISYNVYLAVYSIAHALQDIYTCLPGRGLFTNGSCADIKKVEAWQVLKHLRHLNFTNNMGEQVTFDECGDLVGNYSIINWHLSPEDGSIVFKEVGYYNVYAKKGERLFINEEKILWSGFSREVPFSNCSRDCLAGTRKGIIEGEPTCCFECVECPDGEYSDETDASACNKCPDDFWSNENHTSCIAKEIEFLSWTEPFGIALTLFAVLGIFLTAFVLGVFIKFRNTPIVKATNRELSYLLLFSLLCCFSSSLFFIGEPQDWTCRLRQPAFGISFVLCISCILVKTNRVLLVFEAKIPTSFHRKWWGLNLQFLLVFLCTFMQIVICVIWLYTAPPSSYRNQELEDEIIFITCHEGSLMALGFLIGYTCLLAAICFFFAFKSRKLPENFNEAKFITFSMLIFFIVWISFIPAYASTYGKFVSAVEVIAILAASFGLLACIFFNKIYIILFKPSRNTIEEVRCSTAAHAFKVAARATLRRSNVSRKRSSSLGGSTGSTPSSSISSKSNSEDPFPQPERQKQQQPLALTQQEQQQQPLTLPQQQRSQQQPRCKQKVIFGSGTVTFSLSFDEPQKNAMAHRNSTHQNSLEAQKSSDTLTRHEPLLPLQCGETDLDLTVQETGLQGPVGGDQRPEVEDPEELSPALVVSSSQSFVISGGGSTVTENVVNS

Row | Binder | Kd [1] [nM] | EC50 [2] | 钙流 IC50 (细胞外钙离子浓度1.2mM) [3] [nM]
1 | B1 | 3.2 | 3 | 301
2 | B2 | 3.9 | 1 | 101
3 | B3 | 0.24 | 1.9 | 41
4 | B4 | 0.46 | 0.9 | 65
5 | B5 | 0.9 | 2.1 | 107
